Experiment in all cases: SPR
Background: Surface plasmon resonance follows binding to a sensor surface in real time, without labels.

Assay [1] has as its target monomeric streptavidin variant mSA, wild type.
Assay [2] shares this target. The source holds these as a separate data set.
The target of assay [3] is monomeric streptavidin variant mSA with the S27A mutation.

Drawing on article doi:10.1101/2023.12.19.572259, this text covers Kd, fold higher ka than v119 and fold lower kd than v119 for four molecules.

Read-outs that look alike come from different tables or passages of the source.

One may read the Kd as the free concentration of one partner at which half of the binding sites on the other are occupied at equilibrium, for simple one-to-one binding. Low readings indicate tighter binding, high ones weaker binding. Molecule “Smt3 SUMO protein biotinylated at the N-terminus with biotin C2 maleimide (from UniProt Q12306 1-101) (natural protein)” had a Kd in assay [1] of 9.6 nM. This counts as single-digit nanomolar.

B1: 4NBX.B-biotin103 variant v119 (VHH)
VHH: QVQLQESGGGLAQAGGSLRLSCAASGRTFSHAPMAWFRQPPGKEREFVAAGSSTGRTTYYADSVKGRFTISRDNAKNTVYLQMNSLKPEDTAVYYCAAAPYGCSHYRDEYAYWGQGTQVTVSS
Regarding B1, in assay [2], the Kd came out at 0.9 nM.

B2: 4NBX.B-biotin103 variant v186_Fr (VHH)
VHH: QVQLQESGGGLVQAGGSLRLSCAASGRTFSRSPMAWYRQPPGKEREFVAAGSSTGTTTYYADSVKGRFTISRDNAKNTVYLQMNSLKPEDTAVYYCAAAPLGCARKFAESAYWGQGTQVTVSS
On to B2, for which the Kd in assay [3] worked out at 54 nM; in assay [2], 0.2 nM.

B3: 4NBX.B-biotin103 variant v149 (VHH)
VHH: QVQLQESGGGLAQAGGSLRLSCAASGRTFSRSPMAWFRQPPGKEREFVAAGSSTGRTTYYADSVKGRFTISRDNAKNTVYLQMNSLKPEDTAVYYCAAAPYGCARYRDEYAYWGQGTQVTVSS
In assay [2], B3 registered a Kd of 0.12 nM, a fold higher ka than v119 of 4 fold and a fold lower kd than v119 of 2 fold.
